Reference: US20230233707A1 (University of Washington, published 2023)

These binders were tested against T1, Fc from human IgG1 (human, UniProt P01857-1 104-330 = IgG part) (assay: SEC, design mixed with human IgG1 Fc, overlaid on the single components [panel B]).
T1 construct: domain: Fc; also called human IgG1 Fc; IgG1 Fc protein
From the text: Synthetic genes encoding designed protein sequences appended with a C-terminal 6× histidine tag were expressed in E. coli. Designs were purified from clarified lysates using immobilized metal affinity chromatography (IMAC), and size exclusion chromatography (SEC) was used as a final purification step. […] Designs were then combined with human IgG1 Fc, and the assemblies were re-purified via SEC. Eight of these AbC-forming designs assembled with Fc into a species that eluted as a monodisperse peak at a volume consistent with the target nanoparticle molecular weight (FIG. 2a-b; 3 D2 dihedral, 2 T32 tetrahedral, 1 O42 octahedral, and 2 I52 icosahedral AbCs). For the i52.6 design, adding 100 mM L-arginine to the assembly buffer prevented aggregation after combining with Fc; all other designs readily self-assembled in Tris-buffered saline.
Designs that produced monodisperse SEC peaks around their expected retention volume were combined with Fc from human IgG1. Fc was produced recombinantly either using standard methods for expression in HEK293T cells or in E. coli (43). Cage components were incubated at 4° C. for at minimum 30 minutes. […] Fc-binding and cage formation were confirmed via SEC; earlier shifts in retention time (compared to either component run alone) show the formation of a larger structure. NS-EM was used as previously described to confirm the structures of designs that passed these steps.

Binder | binding result
i52.6 (designed binder, Homopentamer for I52 icosahedral cages; C-terminal GS linker and 6xHis tag; also called i52.6 AbC-forming design) MSDEEERNELIKRIREAAQRAREAAERTGDPRVRELARELARLAQRAFYLVLHDPSSSDVNEALKLIVEAIEAAVRALEAAERTGDPKVREEARELVRRAVEAAEEVQRNPSSSEVNEKLKAIVVEIEVKVASLEAKEVTDPDKALKIAKKVIELALEAVKENPSTEALRAVLEAVRLASEVAKRVTDPDKALKIAKLVIELALEAVKEDPSTDALRAVLEAVRLASEVAKRVTDPDKALKIAKLVLELAAEAVKEDPSTDALRAAKEAERLATEVAKRVTDPKKAREIEMLVLKLQMEAILAETEEVKKEIEESKKRPQSESAKNLILIMQLLINQIRLLALQIRMLALQLQEGSLEHHHHHH | binds
d2.4 (designed binder, Homodimer for D2 dihedral cages; C-terminal GS linker and 6xHis tag; also called d2.4 AbC-forming design) MSDEEERNELIKRIREAAQRAREAAERTGDPRVRELARELARIAQIAFYLVLHDPSSSEVNEALKAVVKAIELAVRALEAAEKTGDPRVRELAREVVKAAVDVAEAAQAGLNDKLREVAEKALRLAKEALKEGDSTAAELAAEIARLAAKLAGDEDVLKKVKLVLEAIKLVKIVVENAKRKGDDSKEAAEAAVAAFLIVLAAAKLAGIASEEVLELAARLIKEVVENAQREGYDIAVAAIAAAVAFAVVAVAAAAADITSSEVLELAIRLIKEVVENAQREGYVILLAALAAAAAFVVVAAAAKRAGITSSETLKRAIEEIRKRVEEAQREGNDISEAARQAAEEFRKKAEELKGSLEHHHHHH | binds
i52.3 (designed binder, Homopentamer for I52 icosahedral cages; C-terminal GS linker and 6xHis tag; also called i52.3 AbC-forming design) MSDEEERNELIKRIREAAQRAREAAERTGDPRVRELARELARLAQRAFYLVLHDPSSSDVNEALKLIVEAIEAAVRALEAAERAGDPELREDAREAVRLAVEAAEEVQRNPSSSTANLLLKAIVALAEALAAAANGDKEKFKKAAESALEIAKRVVEVASKEGDPEAVLEAAKVALRVAELAAKNGDKEVFKKAAESALEVAKRLVEVASKEGDPELVLEAAKVALRVAELAAKNGDKEVFQKAAASAVEVALRLTEVASKEGDSELETEAAKVITRVRELASKQGDAAVAILAETAEVKLEIEESKKRPQSESAKNLILIMQLLINQIRLLVLQIRMLDEQRQEGSLEHHHHHH | binds
d2.7 (designed binder, Homodimer for D2 dihedral cages; C-terminal GS linker and 6xHis tag; also called d2.7 AbC-forming design) MSDEEERNELIKRIREAAQRAREAAERTGDPRVRELARELAKLAQIAFYLVLHDPSAKEVNLALELIVKAIELAVRALEEAEKTGDPHARELAREIVRLAVELARAVAEAAEEAKKQGNSELAEQVARAAQVALEVIKAAITAAKQGDRKAFRAALELVLEVIKAIEEAVKQGNPKKVAEVALKAELIRIVVQNAANKGDDADEAVEAARAAFEIVLAAAQLAGIDSEEVLELAARLIKEVVENAQREGYDIAVAAIAAAVAFAVVAVAAAAADITSSEVLELAIRLIKEVVENAVREGYVILLAALAAAAAFVVVAAAAKRAGITSSETLKRAIEEIRKRVEEAQREGNDISEAARQAAEEFRKKAEELKGSLEHHHHHH | binds
d2.3 (designed binder, also called d2.3 AbC-forming design) MSDEEERNELIKRIREAAQRAREAAERTGDPRVRELARELARIAQIAFYLVLHDPSSSEVNEALKAVVKAIELAVRALEEAEKTGDPEVRELAREVVRLAVEVATATAAGENDTLRKVAERALRLAKEAAKRGDAKAAKQAAKIAKLAAANAGDEDVLKKVELVRLAIELVEIVVENAKRKGDDDKEAAEAALAAFRIVLAAAQLAGIASLEVLELALRLIKEVVENAQREGYDIAVAAIAAAVAFAVVAVAAAAADITSSEVLELAIRLIKEVVENAQREGYVILLAALAAAAAFVVVAAAAKRAGITSSETLKRAIEEIRKRVEEAQREGNDISEAARQAAEEFRKKAEELKGSLEHHHHHH | binds
